Reference: paper PMC4896102, “Biosynthesis of the polymeric gel-forming mucin MUC5B” (American Journal of Physiology - Lung Cellular and …, 2016)

Target: the molecule itself
Assay: SEC-MALS; SEC-MALLS of purified CT5B, performed as described in ref. 18; light scattering and refractive index

B1: recombinant MUC5B COOH-terminus (CT5B; D4-B-C-CK) (domain or fragment, human, UniProt Q9HC84 4955-5762, looked up)
chain: GEVIYNKTDRAGCHFYAVCNQHCDIDRFQGACPTSPPPVSSAPLSSPSPAPGCDNAIPLRQVNETWTLENCTVARCVGDNRVVLLDPKPVANVTCVNKHLPIKVSDPSQPCDFHYECECICSMWGGSHYSTFDGTSYTFRGNCTYVLMREIHARFGNLSLYLDNHYCTASATAAAARCPRALSIHYKSMDIVLTVTMVHGKEEGLILFDQIPVSSGFSKNGVLVSVLGTTTMRVDIPALGVSVTFNGQVFQARLPYSLFHNNTEGQCGTCTNNQRDDCLQRDGTTAASCKDMAKTWLVPDSRKDGCWAPTGTPPTASPAAPVSSTPTPTPCPPQPLCDLMLSQVFAECHNLVPPGPFFNACISDHCRGRLEVPCQSLEAYAELCRARGVCSDWRGATGGLCDLTCPPTKVYKPCGPIQPATCNSRNQSPQLEGMAEGCFCPEDQILFNAHMGICVQACPCVGPDGFPKFPGERWVSNCQSCVCDEGSVSVQCKPLPCDAQGQPPPCNRPGFVTVTRPRAENPCCPETVCVCNTTTCPQSLPVCPPGQESICTQEEGDCCPTFRCRPQLCSYNGTFYGVGATFPGALPCHMCTCLSGDTQDPTVQCQEDACNNTTCPQGFEYKRVAGQCCGECVQTACLTPDGQPVQLNETWVNSHVDNCTVYLCEAEGGVHLLTPQPASCPDVSSCRGSLRKTGCCYSCEEDSCQVRINTTILWHQGCETEVNITFCEGSCPGASKYSAEAQAMQHQCTCCQERRVHEETVPLHCPNGSAILHTYTHVDECGCTPFCVPAPMAPPHTRGFPAQEATAV
modifications: N-glycans (removed by PNGase F; positions not stated)
notes: Present as a mixture of monomers and disulfide-stabilised dimers; the proportions varied between preparations; also called MUC5B COOH-terminal construct; COOH-terminal region of MUC5B
stoichiometry N: 2
